The source of these data is PMC12154155.

A word on the stoichiometry N: it is a count of units in the complex or per binding partner.

In test [1] the target is RsbS S56A, Listeria monocytogenes (Listeria monocytogenes). Nature of the test: cryo-EM structure; stressosomes assembled from purified RsbR, RsbS and RsbT (1:2:5 molar ratio, overnight, 4 °C), purified on Superose 6 in 20 mM Tris-HCl pH 8.5, 250 mM NaCl, 1 mM DTT, 1 mM ADP; 50-150 ug/mL on GO-amino grids; C1, no symmetry imposed; only RsbR and RsbS modelled.
The target in test [2] is RsbS (wild type), Listeria monocytogenes (Listeria monocytogenes). Described as above.

Take “RsbR (wild type), Listeria monocytogenes (from UniProt Q8GD19 1-278) (natural protein)”: the stoichiometry N in test [1] is 2 RsbR to RsbS.

In the case of “RsbR T175A, Listeria monocytogenes (natural protein)”, the stoichiometry N in test [2] is 2 RsbR to RsbS.

For “RsbR T209A, Listeria monocytogenes (natural protein)”, the stoichiometry N in test [2] is 3 RsbR to RsbS.

“RsbR T209E, Listeria monocytogenes (natural protein)”: in test [2], the stoichiometry N was 1 RsbR to RsbS.
